The supplement of paper PMC10201428
± gives the standard deviation of the averaged measurements.

B1: library; a variant is named by its letters at N, in order (parent)
chain: AATGTTGTTGATGCAACCATAAAGTGATATTTAATAATTATTTATAATCAGCAACTTAACCACAAAACAACCATATATTGATATNTCACAAAACAACCATAANTTGATATTTTTGTGAATCGAGTATTTCAGCAAAACTACTGCAGTAAGAA

Columns and labels:
[1] = variants of: B1; test: relative integration efficiency (T-LR orientation) vs wild-type transposon end (log2 (normalized fold change)); transposon end mutated: left end; higher = more efficient transposition; settings: with VchCAST RNA-guided transposition machinery (E. coli BL21(DE3) host, lacZ target)
Method in brief: (§1)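 Barcode abundances in input plasmids and in genomic integration junctions were obtained by PCR amplification and Illumina sequencing. These came from E. coli BL21(DE3) co-transformed with a T7-driven effector plasmid and a pUC57 donor carrying 1549 left-end or 1849 right-end transposon variants, then plated with 0.1 mM IPTG at 37°C for 18 h. Relative integration efficiency is the output/input fold change, normalised to reference barcodes and log-transformed.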

[2] = variants of: B1; test: relative integration efficiency (T-RL orientation) vs wild-type transposon end (log2 (normalized fold change)); transposon end mutated: left end; higher = more efficient transposition; settings: with VchCAST RNA-guided transposition machinery (E. coli BL21(DE3) host, lacZ target)
Method in brief: as §1

For TA T76A T78A T84A C87A A96C T110A T113A, the “relative integration efficiency (log2)” value [1] was 0.0631 ± 0.19 and the “relative integration efficiency (log2)” value [2] was 0.318 ± 0.081.

For TG A16C G24T T32G A33C A70C T76A T84A C87A, the “relative integration efficiency (log2)” value [1] was -0.64 ± 0.74 and the “relative integration efficiency (log2)” value [2] was -0.378 ± 0.44.

With CG A73T T74A A75T T76A the “relative integration efficiency (log2)” value [1] was -1.64 ± 0.86 and the “relative integration efficiency (log2)” value [2] was -0.919 ± 0.62.

In the case of TA A70C T76A T84A C87A T104G T113A, the “relative integration efficiency (log2)” value [1] is reported as 0.771 ± 0.098 and the “relative integration efficiency (log2)” value [2] is reported as 0.69 ± 0.33.

For TA G24A T30A A70C T76A T84A C87A T104G T113A, the “relative integration efficiency (log2)” value [1] was 0.182 ± 0.22 and the “relative integration efficiency (log2)” value [2] was 0.0306 ± 0.22.

With CG T41G T42G the “relative integration efficiency (log2)” value [1] was 1.22 ± 0.23 and the “relative integration efficiency (log2)” value [2] was 0.0624 ± 0.23.

With CG G106T A107C the “relative integration efficiency (log2)” value [1] was -1.19 ± 0.39 and the “relative integration efficiency (log2)” value [2] was -1.42 ± 0.84.

TA A22T G24T T31C A33C T76A T78A T84A C87A T104G T113A was tested, and the “relative integration efficiency (log2)” value [1] was -0.19 ± 0.56 and the “relative integration efficiency (log2)” value [2] was -0.579 ± 0.53.

In the case of CG T38A T39A A40T T41A, the “relative integration efficiency (log2)” value [1] is reported as -0.9 ± 1.3 and the “relative integration efficiency (log2)” value [2] is reported as 0.168 ± 0.1.

CG C89T was tested, and the “relative integration efficiency (log2)” value [1] was 0.203 ± 0.062 and the “relative integration efficiency (log2)” value [2] was -0.158 ± 0.031.

In the case of CG T20G, the “relative integration efficiency (log2)” value [1] is reported as -0.668 ± 0.64 and the “relative integration efficiency (log2)” value [2] is reported as -0.834 ± 0.6.

In the case of CG T48G C49A, the “relative integration efficiency (log2)” value [1] is reported as -0.72 ± 0.49 and the “relative integration efficiency (log2)” value [2] is reported as -0.681 ± 0.47.

With CG T105G the “relative integration efficiency (log2)” value [1] was -0.747 ± 0.68 and the “relative integration efficiency (log2)” value [2] was -1.17 ± 0.51.

With CG T105A the “relative integration efficiency (log2)” value [1] was -1.22 ± 0.29 and the “relative integration efficiency (log2)” value [2] was -0.835 ± 0.58.

With CC A101T A102T T104A the “relative integration efficiency (log2)” value [1] was -0.0376 ± 0.63 and the “relative integration efficiency (log2)” value [2] was -0.0794 ± 0.32.

For CG T43G, the “relative integration efficiency (log2)” value [1] was -0.00931 ± 0.27 and the “relative integration efficiency (log2)” value [2] was -0.28 ± 0.043.

With TA A22T G24T T31C A33C A70C T76A T86G A102T T111C T113C the “relative integration efficiency (log2)” value [1] was -0.793 ± 0.32 and the “relative integration efficiency (log2)” value [2] was -0.813 ± 0.39.

With TG A16C G24T T32G A33C T76A T78A T84A C87A the “relative integration efficiency (log2)” value [1] was -0.658 ± 0.78 and the “relative integration efficiency (log2)” value [2] was -0.572 ± 0.34.

With CG T57A A58T A59T C60G the “relative integration efficiency (log2)” value [1] was 1.28 ± 0.42 and the “relative integration efficiency (log2)” value [2] was 0.281 ± 1.

With CG T41G T42G T43G A44C the “relative integration efficiency (log2)” value [1] was 0.146 ± 0.074 and the “relative integration efficiency (log2)” value [2] was -0.195 ± 0.099.

For CG A90C, the “relative integration efficiency (log2)” value [1] was -0.155 ± 0.19 and the “relative integration efficiency (log2)” value [2] was -0.278 ± 0.11.

CG A90G was tested, and the “relative integration efficiency (log2)” value [1] was -0.331 ± 0.48 and the “relative integration efficiency (log2)” value [2] was -0.339 ± 0.053.

In the case of CG T30A, the “relative integration efficiency (log2)” value [1] is reported as 0.497 ± 0.092 and the “relative integration efficiency (log2)” value [2] is reported as 0.256 ± 0.046.

CG T30C was tested, and the “relative integration efficiency (log2)” value [1] was 0.128 ± 0.19 and the “relative integration efficiency (log2)” value [2] was 0.0623 ± 0.096.

For CG T30G, the “relative integration efficiency (log2)” value [1] was -0.765 ± 0.6 and the “relative integration efficiency (log2)” value [2] was -0.614 ± 0.37.

With CG C72A the “relative integration efficiency (log2)” value [1] was -0.613 ± 1 and the “relative integration efficiency (log2)” value [2] was -0.492 ± 0.48.

TA A70C T76A T86G A96C T112G T113C was tested, and the “relative integration efficiency (log2)” value [1] was 0.367 ± 0.4 and the “relative integration efficiency (log2)” value [2] was -0.132 ± 0.23.

In the case of CG A54T, the “relative integration efficiency (log2)” value [1] is reported as 0.264 ± 0.087 and the “relative integration efficiency (log2)” value [2] is reported as 0.224 ± 0.12.

With CG A54G the “relative integration efficiency (log2)” value [1] was 0.358 ± 0.56 and the “relative integration efficiency (log2)” value [2] was 0.00787 ± 0.0088.

CG T25A G26C A27T T28A was tested, and the “relative integration efficiency (log2)” value [1] was -2.09 ± 0.86 and the “relative integration efficiency (log2)” value [2] was -2.28 ± 0.71.

With CG C87G the “relative integration efficiency (log2)” value [1] was 0.0991 ± 0.48 and the “relative integration efficiency (log2)” value [2] was -0.138 ± 0.019.

In the case of CG G13A T30A T31C T32A A77C T86G, the “relative integration efficiency (log2)” value [1] is reported as -0.338 ± 0.55 and the “relative integration efficiency (log2)” value [2] is reported as -0.517 ± 0.16.

With CG G13A the “relative integration efficiency (log2)” value [1] was 0.397 ± 0.29 and the “relative integration efficiency (log2)” value [2] was 0.195 ± 0.069.

For TA A16C G24T T30A T76A T78G C87A T104A T110A T113A, the “relative integration efficiency (log2)” value [1] was -0.00394 ± 0.69 and the “relative integration efficiency (log2)” value [2] was -0.0421 ± 0.16.

With CG T42C the “relative integration efficiency (log2)” value [1] was 0.252 ± 0.45 and the “relative integration efficiency (log2)” value [2] was 0.37 ± 0.039.

With TA A16C G24T T32G A33C A70C T76A T86G T104G T113A the “relative integration efficiency (log2)” value [1] was -0.573 ± 0.99 and the “relative integration efficiency (log2)” value [2] was -0.869 ± 0.48.

For CG A21T, the “relative integration efficiency (log2)” value [1] was -0.384 ± 0.81 and the “relative integration efficiency (log2)” value [2] was -0.164 ± 0.16.

For CG A21C, the “relative integration efficiency (log2)” value [1] was -1.47 ± 0.6 and the “relative integration efficiency (log2)” value [2] was -0.867 ± 0.55.

With CG C89A A90C A91C A92C the “relative integration efficiency (log2)” value [1] was -0.143 ± 0.65 and the “relative integration efficiency (log2)” value [2] was -0.537 ± 0.37.

For CG T45G, the “relative integration efficiency (log2)” value [1] was -0.109 ± 0.19 and the “relative integration efficiency (log2)” value [2] was -0.0406 ± 0.053.

With CG A83C T84G the “relative integration efficiency (log2)” value [1] was -0.6 ± 0.69 and the “relative integration efficiency (log2)” value [2] was -0.94 ± 0.4.

CG A22T was tested, and the “relative integration efficiency (log2)” value [1] was 0.128 ± 0.29 and the “relative integration efficiency (log2)” value [2] was 0.0984 ± 0.17.

CG A22C was tested, and the “relative integration efficiency (log2)” value [1] was -1.26 ± 0.71 and the “relative integration efficiency (log2)” value [2] was -1.07 ± 0.48.

CG G106C A107T was tested, and the “relative integration efficiency (log2)” value [1] was -1.92 ± 1.4 and the “relative integration efficiency (log2)” value [2] was -1.78 ± 0.63.

In the case of CG C55A T56G, the “relative integration efficiency (log2)” value [1] is reported as -0.293 ± 0.89 and the “relative integration efficiency (log2)” value [2] is reported as 0.0947 ± 0.38.

With CG T114G the “relative integration efficiency (log2)” value [1] was -0.0542 ± 0.0021 and the “relative integration efficiency (log2)” value [2] was -0.0633 ± 0.064.

In the case of CG T8A T9A, the “relative integration efficiency (log2)” value [1] is reported as -0.985 ± 0.14 and the “relative integration efficiency (log2)” value [2] is reported as -0.297 ± 0.11.

In the case of CA A23G G24T A33T A96C T112G T113C, the “relative integration efficiency (log2)” value [1] is reported as -0.242 ± 0.57 and the “relative integration efficiency (log2)” value [2] is reported as -0.198 ± 0.26.

CG A1G was tested, and the “relative integration efficiency (log2)” value [1] was 0.115 ± 0.63 and the “relative integration efficiency (log2)” value [2] was 0.133 ± 0.095.

For CG A75C T76G, the “relative integration efficiency (log2)” value [1] was -2.22 ± 0.87 and the “relative integration efficiency (log2)” value [2] was -1.59 ± 0.54.

In the case of TA A23G G24T A33T T76A T78A T84A C87A A102T T111C T113C, the “relative integration efficiency (log2)” value [1] is reported as -0.26 ± 0.5 and the “relative integration efficiency (log2)” value [2] is reported as 0.131 ± 0.23.

In the case of CG T56A T57A A58T A59T, the “relative integration efficiency (log2)” value [1] is reported as -1.3 ± 0.89 and the “relative integration efficiency (log2)” value [2] is reported as -1.52 ± 0.76.

For TG A23G G24T A33T A70C T76A T86G, the “relative integration efficiency (log2)” value [1] was -0.0695 ± 0.1 and the “relative integration efficiency (log2)” value [2] was -0.149 ± 0.11.

With CG A46G A47G C49G A50T G51C C52T A53C A54G A58C C60G the “relative integration efficiency (log2)” value [1] was -3.701 ± 0.037 and the “relative integration efficiency (log2)” value [2] was -3.69 ± 1.2.

With TA A16C G24T T32G A33C T76A T78G C87A A96C T110A T113A the “relative integration efficiency (log2)” value [1] was -0.283 ± 0.56 and the “relative integration efficiency (log2)” value [2] was -0.233 ± 0.26.

In the case of TA G24A T30A T76A T78G C87A T104G T113A, the “relative integration efficiency (log2)” value [1] is reported as -0.302 ± 0.11 and the “relative integration efficiency (log2)” value [2] is reported as -0.161 ± 0.15.

In the case of CG T9A G10C A11T T12A, the “relative integration efficiency (log2)” value [1] is reported as -4.24 ± 1.9 and the “relative integration efficiency (log2)” value [2] is reported as -1.59 ± 0.56.
